Paper PMC6324732 (Cancer immunology research, 2018)
Where two headings read alike, the source gives them in different places.

Columns and labels:
HLA-A2 [1] = conditions: each complex refolded with HLA-A2 individually, DSF; cited from earlier work
[2] = target: HLA-A*02:01 heavy chain / β2-microglobulin (human); assay: differential scanning fluorimetry
HLA-A2 [3] = conditions: pep/HLA-A2 complexes; cited from earlier work
[4] = system: HLA-A2-restricted T-cell response; conditions: HLA-A2-restricted epitopes; cited from earlier work
[5] = target: HLA-A*02:01 heavy chain / β2-microglobulin (human); assay: differential scanning fluorimetry; remark: listed apart in the source

Row | Molecule | Tm of the peptide/HLA-A2 complex [5] [°C] | other results
1 | YMDGTMSQV [Tyrosinase] |  | Tm value determined by another lab (HLA-A2 [1]): 67.3 °C
2 | TAX peptide |  | Tm of the peptide/HLA-A2 complex [2]: 61.9 °C
3 | FLTSVINRV |  | half-life of the complex (reported) (HLA-A2 [3]): 22.3 h; immunogenicity (reported) [4]: immunogenic
4 | ALIHHNTYL [ERBB2 neoantigen peptide …] | 59.4 | 
5 | ACDPHSGHFV [CDK4 neoantigen peptide …] | 59.9 | 
6 | SVLENFTIFL | 55.8 | 
7 | ILNAMIAKI [HAUS3 neoantigen peptide …] | 56.9 | 
8 | LLHTELERFL [DCAKD neoantigen peptide …] | 42.9 | 
9 | VLLGVKLFGV [COL18A1 neoantigen peptide …] | 60.9 | 
10 | LLLDDLLVSI [PRDX5 neoantigen peptide …] | 55.3 | 
11 | TLWCSPIKV [SRPX neoantigen peptide …] | 63.7 | 
12 | SLFEGIDIYT [HSP70 neoantigen peptide …] | 59.8 | 
13 | VVMSWAPPV [FNDC3B neoantigen peptide …] | 61.6 | 
14 | FMPDFDLHL [AHNAK neoantigen peptide …] | 60.1 | 
15 | GLFGDIYLAI [CSNK1A1 neoantigen peptide …] | 52.6 | 
16 | SLADEAEVYL [GAS7 neoantigen peptide …] | 59.2 | 
17 | VLENFTIFLV | 48.2 | 

Continued, in another order:

Row | Tm of the peptide/HLA-A2 complex [5] [°C] | Molecule | other results
18 | 58.5 | GIVEGLITTV [GAPDH neoantigen peptide …] | 
19 | 57.1 | ILDKVLVHL [CLPP neoantigen peptide …] | 
20 | 61.4 | ILTGLNYEV [NSDHL neoantigen peptide …] | 
21 | 60.7 | FLLDEAIGL [SPOP neoantigen peptide …] | 
22 | 56.4 | HIAKSLFEV [FLNA neoantigen peptide …] | 
23 | 56.8 | VLAKKLKFV [ACPP neoantigen peptide …] | 
24 | 59.7 | VLHDDLLEA [KIAA0223 neoantigen peptide …] | 
25 | 63.2 | FLDEFMEGV [ME-1 neoantigen peptide …] | 
26 | 61.7 | ALYGFVPVL [GANAB neoantigen peptide …] | 
27 | 56.9 | FIASNGVKLV [ACTININ neoantigen peptide …] | 
28 | 61.8 | FLSDHLYLV [CDC37L1 neoantigen peptide …] | 
29 | 53.2 | TLLSQVNKV [CIT neoantigen peptide …] | 
